According to patent publication US20020051988A1 (TRUSTEES OF BOSTON UNIVERSITY, published 2002):
Where no end group is shown, it is not given here.

Assays:
[1] = target: p75 nerve growth factor receptor (p75^NTR) on cultured normal human melanocytes (human) (UniProt P08138); experiment: cell-based or functional assay
[2] = target: p75 nerve growth factor receptor (p75^NTR) overexpressed on permanently transfected NIH 3T3 fibroblasts (Homo sapiens (Human)) (UniProt P08138); experiment: cell-based or functional assay
[3] = target: p75 nerve growth factor receptor (p75^NTR) overexpressed on permanently transfected NIH 3T3 fibroblasts (Homo sapiens (Human)) (UniProt P08138); experiment: competition with ^125I β-amyloid 1-40 on p75^NTR-NIH 3T3 cells, 2 h at 4 C, NGF 0-100 ng/ml; value at 100 ng/ml NGF
[4] = target: T1, p75 nerve growth factor receptor (p75^NTR) overexpressed on permanently transfected NIH 3T3 fibroblasts (Homo sapiens (Human), UniProt P08138 29-427); experiment: displacement of ^125I β-amyloid 1-40 from p75^NTR 3T3 cells, 4 h at 4 C, peptide 0-400 nM
T1 construct: also called 75 kD neurotrophin receptor
T1 sequence: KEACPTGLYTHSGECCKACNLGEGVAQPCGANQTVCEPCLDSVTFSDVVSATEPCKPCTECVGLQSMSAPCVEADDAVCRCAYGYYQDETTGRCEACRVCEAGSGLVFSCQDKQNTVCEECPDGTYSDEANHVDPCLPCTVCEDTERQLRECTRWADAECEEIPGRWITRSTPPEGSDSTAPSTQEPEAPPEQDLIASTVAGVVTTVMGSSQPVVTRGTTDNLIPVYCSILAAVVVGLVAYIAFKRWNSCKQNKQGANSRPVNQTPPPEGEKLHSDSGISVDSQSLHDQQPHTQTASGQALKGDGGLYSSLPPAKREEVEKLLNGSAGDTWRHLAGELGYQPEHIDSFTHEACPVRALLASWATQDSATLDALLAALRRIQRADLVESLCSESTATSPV

β-amyloid 1-40 peptide (from UniProt P05067 1-40)
Bax induction [1]: 3 fold | Bax level as compared to the 40-1 peptide [1]: 270% | decrease in cell yield [1]: 59% | decrease in melanocyte yield [1]: > 50% | decrease in cell yield [2]: 60%

Nerve growth factor (NGF) (ligand)
maximum % inhibition of ^125I labeled β-amyloid binding [3]: 38%

β-amyloid 25-35 peptide (from UniProt P05067 696-706)
Bax induction [1]: 3 fold | Bax level as compared to the 40-1 peptide [1]: 160%

B1: cyclic peptide CVGSNKGAIC (SEQ ID NO: 4) (peptide)
peptide: CVGSNKGAIC
modifications: also: cyclic peptide, ring closure not given here
notes: also called cyclic decapeptide; cold peptide
IC50 [4]: 25 nM
